Results on 97 variants are retold here after the supplement of paper PMC10567573.

B1: ZC3H15 (parent)
chain: ENLFTGEDLDELEEELNTLDLEE
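Note: lentivirally expressed fusions sorted by FACS into six bins by GFP to DsRed ratio, PSI derived from sequencing read proportions per bin multiplied by bin number.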

The variants in this data set derive from B1. Description: protein stability index of a GFP-peptide fusion (GPS, HEK-293T) (PSI 1-6); higher = more stable. Conditions: c terminus: native.
On to ENLFTGEDLDELVEELNTLDLEE [E13V], for which the protein stability index is 4.83. Consider ENLFTGEDLDELHEELNTLDLEE [E13H], for which the protein stability index amounted to 3.82. To ENLFTGEDLDELPEELNTLDLEE [E13P] belongs 3.56; to ENLFTGEDLDELDEELNTLDLEE [E13D], 4.46; to ENLFTGEDLDELTEELNTLDLEE [E13T], 4.6. With ENLFTGEDLDELKEELNTLDLEE [E13K] the figure was 4.

As for ENLFTGEDLDELYEELNTLDLEE [E13Y], the protein stability index was 4.11. As for ENLFTGEDLDELCEELNTLDLEE [E13C], the protein stability index was 5.19. With ENLFTGEDLDELWEELNTLDLEE [E13W] the figure was 3.48.

Turning to ENLFTGEDLDELFEELNTLDLEE [E13F], the protein stability index stood at 3.81. For ENLFTGEDLDELQEELNTLDLEE [E13Q], the protein stability index stood at 5.06. With ENLFTGEDLDELLEELNTLDLEE [E13L] the figure was 4.44; with ENLFTGEDLDELAEELNTLDLEE [E13A], 5.59. Consider ENLFTGEDLDELREELNTLDLEE [E13R], for which the protein stability index was 4.37. Regarding ENLFTGEDLDELIEELNTLDLEE [E13I], the protein stability index worked out at 4.51.

With ENLFTGEDLDELGEELNTLDLEE [E13G], the protein stability index worked out at 3.77. ENLFTGEDLDELNEELNTLDLEE [E13N]: the protein stability index was determined as 5.1. With ENLFTGEDLDELSEELNTLDLEE [E13S] the figure was 5.36. To ENLFTGEDLDELEIELNTLDLEE [E14I] belongs 3.3; to ENLFTGEDLDELEPELNTLDLEE [E14P], 3.42.

For the variant ENLFTGEDLDELEHELNTLDLEE [E14H], the protein stability index is 5.05. With ENLFTGEDLDELEVELNTLDLEE [E14V] the figure was 3.65; with ENLFTGEDLDELEAELNTLDLEE [E14A], 5.01. To ENLFTGEDLDELEYELNTLDLEE [E14Y] belongs 4.33. To ENLFTGEDLDELEGELNTLDLEE [E14G] belongs 3.47.

In the case of ENLFTGEDLDELEWELNTLDLEE [E14W], the protein stability index is 3.7. On to ENLFTGEDLDELEQELNTLDLEE [E14Q], for which the protein stability index turned out to be 4.56. As to ENLFTGEDLDELEDELNTLDLEE [E14D], the protein stability index is 4.74.

As for ENLFTGEDLDELESELNTLDLEE [E14S], the protein stability index is 4.85.

In the case of ENLFTGEDLDELENELNTLDLEE [E14N], the protein stability index was found to be 4.37. ENLFTGEDLDELEFELNTLDLEE [E14F]: the protein stability index turned out to be 2.95. To ENLFTGEDLDELECELNTLDLEE [E14C] belongs 3.99; to ENLFTGEDLDELEKELNTLDLEE [E14K], 5.14.

Take ENLFTGEDLDELEMELNTLDLEE [E14M]: the protein stability index was 3.55. To ENLFTGEDLDELETELNTLDLEE [E14T] belongs 4.12; to ENLFTGEDLDELEEELNKLDLEE [T18K], 5.53; to ENLFTGEDLDELEEELNCLDLEE [T18C], 4.8.

Turning to ENLFTGEDLDELEEELNHLDLEE [T18H], the protein stability index amounted to 4.81. To ENLFTGEDLDELEEELNDLDLEE [T18D] belongs 4.24. As for ENLFTGEDLDELEEELNALDLEE [T18A], the protein stability index was found to be 4.22. To ENLFTGEDLDELEEEANTLDLEE [L16A] belongs 3.48; to ENLFTGEDLDELEEEGNTLDLEE [L16G], 4.11; to ENLFTGEDLDELEEERNTLDLEE [L16R], 3.77. To ENLFTGEDLDELEEEVNTLDLEE [L16V] belongs 4.22; to ENLFTGEDLDELEEENNTLDLEE [L16N], 4.12. Turning to ENLFTGEDLDELEEESNTLDLEE [L16S], the protein stability index amounted to 3.82. ENLFTGEDLDELEEEENTLDLEE [L16E]: the protein stability index turned out to be 3.7. Take ENLFTGEDLDELEEEHNTLDLEE [L16H]: the protein stability index was determined as 4.2.

As to ENLFTGEDLDELEEEWNTLDLEE [L16W], the protein stability index was 2.9. For ENLFTGEDLDELEEEKNTLDLEE [L16K], the protein stability index was 3.62. As for ENLFTGEDLDELEEEFNTLDLEE [L16F], the protein stability index is 4.87.

As for ENLFTGEDLDELEEEMNTLDLEE [L16M], the protein stability index was 4.78. With ENLFTGEDLDELEEEPNTLDLEE [L16P] the figure was 3.32; with ENLFTGEDLDELEEETNTLDLEE [L16T], 4.77; with ENLFTGEDLDELEEEQNTLDLEE [L16Q], 2.69. With ENLFTGEDLDEQEEELNTLDLEE [L12Q] the figure was 3.69; with ENLFTGEDLDEKEEELNTLDLEE [L12K], 4.01. With ENLFTGEDLDENEEELNTLDLEE [L12N] the figure was 4.38. Turning to ENLFTGEDLDESEEELNTLDLEE [L12S], the protein stability index came out at 4.59. To ENLFTGEDLDEYEEELNTLDLEE [L12Y] belongs 1.93; to ENLFTGEDLDEMEEELNTLDLEE [L12M], 3.43.

Regarding ENLFTGEDLDEPEEELNTLDLEE [L12P], the protein stability index was found to be 4.82. With ENLFTGEDLDEREEELNTLDLEE [L12R] the figure was 3.52; with ENLFTGEDLDELEEDLNTLDLEE [E15D], 3.74.

Regarding ENLFTGEDLDELEEMLNTLDLEE [E15M], the protein stability index was 3.88. In the case of ENLFTGEDLDELEESLNTLDLEE [E15S], the protein stability index came out at 5.18. To ENLFTGEDLDELEERLNTLDLEE [E15R] belongs 5.29; to ENLFTGEDLDELEEQLNTLDLEE [E15Q], 4.93. With ENLFTGEDLDELEEFLNTLDLEE [E15F], the protein stability index was 3.37. With ENLFTGEDLDELEELLNTLDLEE [E15L] the figure was 3.29; with ENLFTGEDLDELEEGLNTLDLEE [E15G], 5.2; with ENLFTGEDLDELEEPLNTLDLEE [E15P], 3.14. On to ENLFTGEDLDELEEHLNTLDLEE [E15H], for which the protein stability index was found to be 4.29.

For ENLFTGEDLDELEEILNTLDLEE [E15I], the protein stability index was found to be 4.04.

For the variant ENLFTGEDLDELEEYLNTLDLEE [E15Y], the protein stability index was determined as 3.4. To ENLFTGEDLDELEENLNTLDLEE [E15N] belongs 4.61; to ENLFTGEDLDELEEVLNTLDLEE [E15V], 3.09; to ENLFTGEDLDELEEALNTLDLEE [E15A], 4.94.

As for ENLFTGEDLDELEEWLNTLDLEE [E15W], the protein stability index stood at 4.08.

On to ENLFTGEDLDELEEKLNTLDLEE [E15K], for which the protein stability index stood at 5.54. With ENLFTGEDLDELEETLNTLDLEE [E15T] the figure was 5.01; with ENLFTGEDLDELEEELCTLDLEE [N17C], 3.64.

ENLFTGEDLDELEEELMTLDLEE [N17M]: the protein stability index was determined as 3.5. In the case of ENLFTGEDLDELEEELDTLDLEE [N17D], the protein stability index was determined as 4.65. For the variant ENLFTGEDLDELEEELSTLDLEE [N17S], the protein stability index is 4.45.

As for ENLFTGEDLDELEEELVTLDLEE [N17V], the protein stability index turned out to be 3.5. Consider ENLFTGEDLDELEEELHTLDLEE [N17H], for which the protein stability index was determined as 3.71. To ENLFTGEDLDELEEELATLDLEE [N17A] belongs 4.7; to ENLFTGEDLDELEEELITLDLEE [N17I], 3.3. To ENLFTGEDLDELEEELYTLDLEE [N17Y] belongs 3.79. To ENLFTGEDLDELEEELQTLDLEE [N17Q] belongs 4.06; to ENLFTGEDLDELEEELRTLDLEE [N17R], 5.04; to ENLFTGEDLDELEEELWTLDLEE [N17W], 2.69. Consider ENLFTGEDLDELEEELETLDLEE [N17E], for which the protein stability index came out at 4.89. On to ENLFTGEDLDELEEELTTLDLEE [N17T], for which the protein stability index came out at 3.66. As to ENLFTGEDLDELEEELFTLDLEE [N17F], the protein stability index was determined as 2.5. ENLFTGEDLDELEEELKTLDLEE [N17K]: the protein stability index worked out at 5.18.
